Measured values reported in patent US20240352144A1 (UNIVERSIT TSKLINIKUM HAMBURG EPPENDORF, published 2024).

T1: human CD39 (gene ID 953) (human, UniProt P49961 5-510)
T1 construct: Cell-surface form: transiently or stably transfected HEK cells, PBMCs, AML cell lines; also called native CD39; human CD39 transfected HEK cells
T1 sequence: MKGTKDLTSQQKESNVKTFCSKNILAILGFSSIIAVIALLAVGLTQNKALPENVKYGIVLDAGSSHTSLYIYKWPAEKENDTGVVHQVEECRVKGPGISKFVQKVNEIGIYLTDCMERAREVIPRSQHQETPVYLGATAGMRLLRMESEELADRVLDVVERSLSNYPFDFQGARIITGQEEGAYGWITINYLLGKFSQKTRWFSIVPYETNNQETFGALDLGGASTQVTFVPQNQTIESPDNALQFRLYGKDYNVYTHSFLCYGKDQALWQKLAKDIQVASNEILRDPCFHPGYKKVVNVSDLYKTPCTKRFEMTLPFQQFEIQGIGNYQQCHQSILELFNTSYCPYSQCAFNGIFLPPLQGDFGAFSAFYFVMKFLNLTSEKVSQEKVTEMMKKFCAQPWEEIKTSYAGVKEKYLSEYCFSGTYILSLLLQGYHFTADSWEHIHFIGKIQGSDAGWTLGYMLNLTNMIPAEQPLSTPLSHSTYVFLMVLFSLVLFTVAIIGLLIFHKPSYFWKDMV

T2: mouse CD39 (gene ID 12495) (mouse, UniProt P55772 1-510)
T2 construct: whole, on cells; also called murine CD39; mouse CD39 transfected HEK cells
T2 sequence (looked up): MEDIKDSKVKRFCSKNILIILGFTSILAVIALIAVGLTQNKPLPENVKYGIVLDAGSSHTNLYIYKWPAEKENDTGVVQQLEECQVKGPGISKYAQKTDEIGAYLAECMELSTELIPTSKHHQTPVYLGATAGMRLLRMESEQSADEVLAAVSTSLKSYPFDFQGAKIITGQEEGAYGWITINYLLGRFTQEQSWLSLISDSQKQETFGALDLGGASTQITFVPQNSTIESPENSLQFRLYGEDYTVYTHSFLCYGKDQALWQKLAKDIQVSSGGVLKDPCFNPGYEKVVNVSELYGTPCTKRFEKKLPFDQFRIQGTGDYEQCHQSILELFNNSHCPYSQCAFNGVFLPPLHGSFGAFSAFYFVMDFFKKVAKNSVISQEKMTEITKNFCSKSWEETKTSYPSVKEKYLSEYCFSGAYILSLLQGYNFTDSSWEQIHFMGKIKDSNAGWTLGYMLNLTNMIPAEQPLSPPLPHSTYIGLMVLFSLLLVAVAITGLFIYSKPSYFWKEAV


What was measured:
human CD39 (gene ID 953) [1] = target: T1, human CD39 (gene ID 953); assay: flow cytometry binning on human CD39-expressing cells; competitor: Fam. 2 human IgG hcAb in excess
human CD39 (gene ID 953) [2] = target: T1, human CD39 (gene ID 953); assay: flow cytometry binning on human CD39-expressing cells; competitor: human IgG hcAb SB24 (Fam. 1) in excess
human CD39 (gene ID 953) [3] = target: T1, human CD39 (gene ID 953); assay: flow cytometry binning on human CD39-expressing cells; competitor: Fam. 3 human IgG hcAb (SB134) in excess
human CD39 (gene ID 953) [4] = target: T1, human CD39 (gene ID 953); assay: flow cytometry binning on human CD39-expressing cells; competitor: Fam. 5 human IgG hcAb (SB136) in excess
[5] = target: T2, mouse CD39 (gene ID 12495); assay: Table 1 specificity; binding to human (h) and/or mouse (m) CD39
human CD39 (gene ID 953) [6] = target: T1, human CD39 (gene ID 953); assay: flow cytometry, rabbit IgG hcAb supernatant on transfected HEK cells
[7] = target: recombinant human CD39 ectodomain with C-terminal His6x tag (human) (UniProt P49961); assay: BLI (Octet RED96), rabbit IgG hcAb on protein A biosensor, recombinant CD39 ectodomain as analyte at 200 ng/µl
[8] = target: recombinant human CD39 ectodomain with C-terminal His6x tag (human) (UniProt P49961); assay: BLI (Octet RED96), rabbit IgG hcAb on protein A biosensor, recombinant CD39 ectodomain as analyte
[9] = target: T2, mouse CD39 (gene ID 12495); assay: Table 1 specificity; sorted by binding to human (h) and/or mouse (m) CD39
human CD39 (gene ID 953) [10] = target: T1, human CD39 (gene ID 953); assay: Table 1 specificity; binding to human (h) and/or mouse (m) CD39

Row | percent inhibition of binding (human CD39 (gene ID 953) [1]) | percent inhibition of binding (human CD39 (gene ID 953) [2]) | percent inhibition of binding (human CD39 (gene ID 953) [3]) | percent inhibition of binding (human CD39 (gene ID 953) [4]) | binding result [5] | binding result (human CD39 (gene ID 953) [6]) | koff [7] | koff [8] | binding result [9] | binding result (human CD39 (gene ID 953) [10]) | Molecule
1 | 8% | 17% | 5% | 75% | – | – | – | – | – | – | monoclonal antibody against CD39, clone eBioA1
2 | 98% | 39% | 96% | 91% | binds | – | – | – | – | – | SB39 rabbit IgG hcAb (Fc fusion, not shown: a dimerising Fc or GST, also called l- 11; family 7) VHH: QVQLVESGGGLVQPGGSLRLSCAASGFTLDYFAIGWFRQGPGKERDWVSCISKDGTTYYIDSVKGRFTISRDNAKNTGYLQMSGLKPDDTAVYYCARGAGGCQSDFGARGQGTQVTVSS
3 | – | – | – | – | – | binds | 0.048 s⁻¹ | – | – | – | SB126 rabbit IgG hcAb (Fc fusion, not shown: a dimerising Fc or GST, also called family 2) VHH: QVQLVESGGGLVQAGDSLRLSCAASGRIPVTTTTAWFRQAPGKEREFVAAIRWNSGDAAYADSAKGRFTISRDSAKNTLYLQMNNLEPEDTAVYYCAAKYSRYAPQSTDYDYWGQGTQVTVSS
4 | – | – | – | – | – | binds | 0.028 s⁻¹ | – | – | – | SB127 rabbit IgG hcAb (Fc fusion, not shown: a dimerising Fc or GST, also called family 2) VHH: QVQLVESGGGLVQAGDSLRLSCAASGRIPVTTTTAWFRQAPGKEREFVAAITWNSGNTNYADSAKGRFTISRDSAKNTLYLQMNNLKPEDTAVYYCAAKYSRYNLQSTDYDYWGQGTQVTVSS
5 | – | – | – | – | – | binds | 0.052 s⁻¹ | 0.05 s⁻¹ | – | – | SB129 rabbit IgG hcAb (Fc fusion, not shown: a dimerising Fc or GST, also called family 2) VHH: QVQLVESGGGLVQAGDSLRLSCAASGRTPITTTTGWFRQAPGKEREFVAAIRWNSGDAAYADSAKGRFTISRDSAKNTLYLQMNNLEPEDTAVYYCAAKYSRYAPQSTDYDYWGQGTQVTVSS
6 | 86% | 14% | 88% | 42% | – | – | 0.011 s⁻¹ | – | no binding | – | SB128 rabbit IgG hcAb (Fc fusion, not shown: a dimerising Fc or GST, also called l- 14b; family 2) VHH: QVQLVESGGGLVQAGDSLRLSCAASGRTPITTTTGWFRQAPGKEREFVAAIRWDSGNTNYADSAKGRFTISRDSAKNLLYLQMTNLKPEDTAVYYCAAKYSRYLPQSTDYDYWGQGTQVTVSS
7 | 46% | 9% | 53% | 37% | – | – | 0.03 s⁻¹ | – | no binding | – | SB135 rabbit IgG hcAb (Fc fusion, not shown: a dimerising Fc or GST, also called l- 15; family 4) VHH: QVKLQESGGGLVQAGGSLRLSCTASEESFNKYGVGWFRQAPGKERAFVVAIRPSGVITSYADSVKGRFTISRDSAKNTAYLQMNSLKPEDTALYYCAANSRNTNYYRPNGYDYWGRGTQVTVSS
8 | 93% | -11% | 95% | 39% | – | – | – | – | no binding | – | SB137 rabbit IgG hcAb (Fc fusion, not shown: a dimerising Fc or GST, also called s- 17; family 6) VHH: QVKLQESGGGLGQAGGSLRLSCSASARTSATYVMGWFRQAPGKEREFVATISRSTSTTYYGDSVKGRFTISRDNAKNAVYLQMNSLKPEDTAVYYCATRAPRYGTASTRLSDYDNWGQGTQVTVSS
9 | – | – | – | – | binds | – | – | – | – | binds | SB112 rabbit IgG hcAb (Fc fusion, not shown: a dimerising Fc or GST, also called l- 14c; family 9) VHH: QVQLQESGGGLVQAGGSLRLSCTASGRSFSSNAMGWFRQAPGKEREFVARINWSGSRTFYTDSVKGRFTISRDNAKNTMYLQMNSLKPEDTAVYYCAADPNYGSSITSGYTYWGQGTQVTVSS
10 | – | – | – | – | binds | – | – | – | – | binds | SB32 rabbit IgG hcAb (Fc fusion, not shown: a dimerising Fc or GST, also called l- 14d; family 10) VHH: QVQLVESGGGLVQAGGSLRLSCAVSKRTSTHYAMGWFRQAPGLVREFVGVINWNGGTTYYADSVKGRFFISRDNAKNTMALQMNNLKPEDTAVYYCALKVDGLGLTSNEYQHWGQGTQVTVSS
11 | – | – | – | – | – | binds | 0.0031 s⁻¹ | – | – | – | SB27 rabbit IgG hcAb (Fc fusion, not shown: a dimerising Fc or GST, also called family 1) VHH: QVQLVESGGGLVQPGGSLRLSCAASGSIFSFNAMGWYRQAPGKQRELVAAITSGGSTNYADSVKGRFTISRDNAKNTVYLQMNSLKPEDTAVYYCNGIGGSTWFGEDEYDYWGQGTQVTVSS
12 | – | – | – | – | – | binds | 0.0011 s⁻¹ | – | – | – | SB132 rabbit IgG hcAb (Fc fusion, not shown: a dimerising Fc or GST, also called family 1) VHH: QVQLVESGGGLVQPGGSLRLSCAASGSIFNFNAMGWYRQASGKQRELVAAITSGGSTNYADSVKGRFTISRGNAKNTVYLQMNSLKPEDTAVYYCHGIGGSTWFGEEEYDSWGQGTQVTVSS
13 | 39% | 99% | 40% | 53% | – | – | 0.00099 s⁻¹ | – | no binding | – | SB24 rabbit IgG hcAb (Fc fusion, not shown: a dimerising Fc or GST, Bivalent VHH-Fc heavy chain antibody; also called l- 14a; family 1) VHH: QVQLVESGGGLVQPGGSLRLSCAASGSIFSFNAMGWYRQAPGKQRELVAAITSGGNTNYADSVKGRFAISRDNAKNTVYLQMSSLKPEDTAVYYCKGIGGSTWFGEDEPDYWGQGTQVTVSS
14 | – | – | – | – | – | binds | 0.00084 s⁻¹ | – | – | – | SB131 rabbit IgG hcAb (Fc fusion, not shown: a dimerising Fc or GST, also called family 1) VHH: QVQLVESGGGLVQPGGSLRLSCAASESIVSFNAMGWYRQAPGKQRDLVAAITSGGRTNYAESVKGRFTISRDDAKNTVYLQMNSLKPEDTAVYYCHAIGGSTWFGEDEPDYWGQGTQVTVSS
15 | – | – | – | – | – | binds | 0.0015 s⁻¹ | – | – | – | SB130 rabbit IgG hcAb (Fc fusion, not shown: a dimerising Fc or GST, also called family 1) VHH: QVQLVESGGGSVQPGGSLKLSCAASGSISSINAMGWYRQAPGKQRELVAAITSGGYTNYADSVKGRFTISRDNAKNTVYLQMNSLKPEDTAVYYCNAIGGSTWFGEDEYDNWGQGTQVTVSS
16 | – | – | – | – | binds | – | – | – | – | binds | SB90 rabbit IgG hcAb (Fc fusion, not shown: a dimerising Fc or GST, also called s+ 17; family 8) VHH: QVQLVESGGGLVQAGGSLRLSCAVSGLNNYAIGWLRQAPGKEREGVSCINCFDDFTYYADSVKGRFTVSCDNANHTVNLEMNSLRPEDTAVYYCAAGTCGSWWRYTPTPADGAWGRGTQVTVSS
17 | 16% | -11% | 0% | 75% | – | – | 0.0012 s⁻¹ | – | no binding | – | SB136 rabbit IgG hcAb (Fc fusion, not shown: a dimerising Fc or GST, also called s- 12; family 5) VHH: DVQLQASGGGLVQPGGSLRLSCAASGFRFSIYDMSWVRRPPGKGLEWVSSITSPGGTTYADSVKGRFTISRDNDKNTLYLQMNSLKPEDTAIYYCAKAYGGRSVVAQTARGQGTQVTVSS
18 | – | 15% | 58% | 41% | – | – | 0.012 s⁻¹ | – | no binding | – | SB134 rabbit IgG hcAb (Fc fusion, not shown: a dimerising Fc or GST, also called l- 5a; family 3) VHH: QVKLQESGGGWVQPGGSLRLSCAASGFTFRTHFMSWVRQAPGQGLEWVSGITSGGRTSYVDSVKGRFTISRDNAANTLYLQMNSLKPEDTAVYFCTKGDSGARGQGTQVTVSS
